Laboratory results: article PMC4633474, “Kinetic properties and stability of glucose dehydrogenase from Bacillus amyloliquefaciens SB5 and its potential for cofactor regeneration” (AMB Express, 2015)

Tests used:
Assay in all cases: purified protein
Type in all cases: biochemical, Bacillus amyloliquefaciens
purified protein [1] = substrate: NC(=O)c1ccc[n+]([C@@H]2O[C@H](COP(=O)(O)OP(=O)(O)OC[C@H]3O[C@@H](n4cnc5c(N)ncnc54)[C@H](O)[C@@H]3O)[C@@H](O)[C@H]2O)c1; conditions: co-substrate glucose, apparent, pH and temperature of kinetics not stated (default assay Tris-Cl pH 8 or CPB buffer, 37 °C), varied: cofactor
purified protein [2] = substrate: NC(=O)c1ccc[n+]([C@@H]2O[C@H](COP(=O)(O)OP(=O)(O)OC[C@H]3O[C@@H](n4cnc5c(N)ncnc54)[C@H](OP(=O)(O)O)[C@@H]3O)[C@@H](O)[C@H]2O)c1; conditions: co-substrate glucose, apparent, pH and temperature of kinetics not stated (default assay Tris-Cl pH 8 or CPB buffer, 37 °C), varied: cofactor
purified protein [3] = substrate: OC[C@H]1O[C@@H](O)[C@H](O)[C@@H](O)[C@@H]1O; conditions: with 0.5 mM NADP+, apparent, pH and temperature of kinetics not stated (default assay Tris-Cl pH 8 or CPB buffer, 37 °C)

B1: GluDH-BA (Bacillus amyloliquefaciens) (protein)
chain: MYTDLKGKVVAITGASSGLGKAMAIRFGQEQAKVVVNYYSNEKDAQTVKEEIQKAGGEAVIIQGDVTKEEDVKNIVQTAVKEFGTLDVMINNAGMENPVQSHEMPLKDWNKVINTNLTGAFLGSREAIKYYVENDIQGNVINMSSVHEMIPWPLFVHYAASKGGIKLMTETLALEYAPKRIRVNNIGPGAINTPINAEKFADPVQRKDVESMIPMGYIGEPEEIAAVAVWLASKESSYVTGITLFADGGMTKYPSFQAGRG
notes: full length (261 aa, 28 kDa), 6xHis inserted right after start Met, pET23b, E. coli BL21(DE3), Ni-purified; tag cleavage not mentioned
- Km (purified protein [1]): 250 ± 30 µM
- Km (purified protein [2]): 50 ± 4 µM
- kcat (purified protein [2]): 70 ± 0.3 s⁻¹
- Km (purified protein [3]): 5500 ± 280 µM
- kcat (purified protein [3]): 70 ± 0.3 s⁻¹
